From the nanobody polyreactivity screen of Harvey et al. (2022)

Assay: yeast display, Sf9 membrane polyspecificity reagent, FACS + sequencing; frameworks hold sequencing errors
Outline: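 Galactose-induced (36–48 hours) yeast carrying a synthetic nanobody display library were exposed to 10% biotinylated, detergent-solubilized Sf9 membrane reagent at 4 °C for 1 hour. FACS followed streptavidin microbead enrichment, using low and high (top ~1%) gates for expression (anti-HA) and reagent binding (streptavidin). Colony PCR, MiSeq 2 × 250 sequencing and CDR-length filtering followed. Labels for polyreactivity reflect the gate of origin.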

| Sequence | polyreactivity (PSR sort gate) |
| --- | --- |
| QVQLVESGGGLVQAGGSLRLSCAASGRIFTGNALGWYRPAPGKERELVAGISTSGGSTYYADSVKGRFTISRDNAKNTVYLQMNSLKPEDTAVYYCAADWYYRRSYRRMNYWGQGTQVTVSS | high polyreactivity |
| QVQLVESGGGLVQAGGSLRLSCAASGSTFAYYAMGWYRQAPGKERELVAAITRSTGRTYYADSVKGRFTISRDNAKNTVYLQMNSLKPEDTAVYYCAKTYGYRQPGDYWGQGTLVTVSS | high polyreactivity |
| QVQLVESGGGLVQAGGSLRLSCAASGSTFGYYGMGWYRQAPGKERELVAAISTGGRTNYADSVKGRFTISRDNAKNTVYLQMNSLKPEDTAVYYCAADFLSPAYRPSWYRFDYWGQGTQVTVSS | low polyreactivity |
| QVQLVESGRGLFQAGGSLRLSCAASGFTFSLYAMGWYRQPPGKERELVAVISYRGGSTYYAYSVKGRFTISRDNAKNTVYLQMNSLKPEVTAVYYCARVVLHFSRYWWPVDYWGQGTQVTVSS | high polyreactivity |
| QVQLVESGGGLVQAGGSLRLSCAASGIIFYVYAMGWYRQAPGKERELVATITRRDDSTYYADSVKGRFTISRDNAKNTVYLQMNSLKPEDTAVSYCNADFWLLSEYDYWGQGTQVTVSS | low polyreactivity |
| QVQLVESGGGLVQAGGSLRLICAASGTNFVFNAIGWYRQAPGKERELVAINSGGSTYYADSVKGRFTNSRDNAKNTVFLQMNSLIPEDTAVYYCAKDRLRVWRFDYWGQGTQVTVST | low polyreactivity |
| QVQLVESGGGLVQSGGSLRLSCAASGITFFEYAMGWYRQAPGKERELVAVITSGGSTNYADSVKGRFTISRDNAKNTVYLQMNSLKPEDTAVYYCNALVVKYRWWYDYYYWGQGTQVTVSS | low polyreactivity |
| QVQLVESGGGLVQAGGSLRLSCAASGIFYVYAMGWYRQAPGKERELVAAISSDGSTYYADSVKGRFTISRDNAKNTVYLQMNSLKPEDTAVYYCAAVWYWTQDYDYWGQGTQVTVSS | low polyreactivity |
| QVQLVESGGGLVQAGGSLRLSCAASGRNFVAYTMGWYRQAPGKERELVAAISTNGGRTYYADSVKGRFTISRDNAKITVYLQMNSLKPEDTAVYYCAAYRGPRADYYWGQGTQVTVSS | high polyreactivity |
| QVQLVESGGGLVQAGGSLRLSCAASGRTSLAYAMGWYRKATGKERELVAGITSGGNTNYADSVKGRFTISCDNAKNSVYLQMNRLKPEDTAVYYCNKKKRWQWYSESVLDELGFYSWGQGTQVTVSS | low polyreactivity |
| QVQLVESVGGLVQAGGSLRLSCAASGRIFWKYTMGWYRQAPGKERELVAAIRSAGGSTYYADSVKGRFTISRDNAKNTVYLQMNSLKPEDTAVYYCAAEPSQRYPLSGYYYWGQGTQVTVSS | low polyreactivity |
| QVQLVESGGGLVQAGGSLRLSCSASGGTFSYYAMGWYRQAPGKERELVASISTDGGSTYYADSVKGRFTISRDNAKNTVYLQMNSLKPEDTAVYYCNARPRGYSDRYGYWGQGTQVTVSS | high polyreactivity |
| QVQLVESGGGLVQAGCSLRLRCAASGRIYPYYAMGWYRQAPGKERELVAAIRGGGTSTRYADSVKGRFTISRDNAKKTVDLQMNSLKPSDTADYYCAAVWYSGSTRYSKYLEYYYWGQGTQVTVSS | high polyreactivity |
| QVQLVESGGGLVQAGGSLRLSCAASGYTFFFNVMGWYRQAPGKERELVAAISYSGGSTNYADSVKGRFTISRDNAKNTVYLQINSLKPEDTAVYYCNARTVSRNGYQDDYWGQGTQVTVSS | low polyreactivity |
| QVQLVESGGGLVQAGGSLRLSCAASRRNFGRYAMGWYRQAPGKETELVARISSGGSTHYADSVKGRFTISRDNAMNSVFLQMNSLKPEDTAVYYCAAGWGYWRSYGSWGQGTEVTVSS | high polyreactivity |
| QDQLVESGGGLVQAGGSLRLICAASASTFTRYAMGWYRQAPGKERELVACITGRGGSTYYADSVKGRFPISRDYAKNTVYLQMNCLKPEDTAVYYCARAEGKCPYSRYWPYRGGYDYWGQGTQVTRSS | high polyreactivity |

| Sequence | polyreactivity (PSR sort gate) |
| --- | --- |
| QVQLVEAGGCLVHAGGSLRLSCAASGRIFVGNAMGWYRQAPGKERELVAAINNGGTTYYADSVKGRFTIARDNGKNTVYLQMNSLKPEDTAVYHCAATPYRGTRSYLIGELDYWGQGTQVTVSS | low polyreactivity |
| QVQLVESGGGLVQAGGSLRLSCAASGRIFGSYAMGWYRQAPGKERELVASISGSGTSTYYADSVKGRFTISRDNAKNTVYLQMNSLKPEDTAVYYCARYVRYYPSKFYYWGQGTQVTVSS | high polyreactivity |
| QVQLVESGGGLVQAGGSLRLSCAASGLTFPWYAMGWYRQAPGKERELVASINSSTGSTYYADSVKGRFTISRDNAKNTVYLQMNSLKPEYTAVYYCAAVEYGNMDWGQGTQVTVSS | low polyreactivity |
| QVQLVESGGGLVQAGGSLRLSCAASGITFLPTAMGWYRQAPGKERELVAAITWRGGSTYYADAVKGRFTISRDHAKNTVYLQMNSLKREDTAVYYCGATGWQYVYYNYLWLKGGYWGQGTQVSVSS | high polyreactivity |
| QAQLVESGGGLVQAGGSLRLSSAATGIIFGRYAMGWYRQAPGKERELVAAISTSGGSTYYADSVKGRFTISRDNAKNTVYLQMNSLKAEDTAVYYCAVDLFYKYDWGQGTQVTVSS | high polyreactivity |
| QVQLVESGGGLVQAGGSLRLSCAASGSTYYFYPMGSYRQAPGKERELVAAISFTDTSTYYADSVQGRFTISRDNAKNTVYLQMNSLKPEDTAVYYCAARYAGGYYYWGQGTQVTVSS | high polyreactivity |
| QVQLVESGGGLVQAGGSLRLSCAASGSIFATYAMGWYRQAPGKERELVAAISRSGGSTNYADSVKGRFTISRDNAKNTVYLQMNSLKPEDTAVYYCAAVRPHWYGQGWALYWFEYWGQGTQVTVSS | low polyreactivity |
| QVQLVESGGGLVQAGGSLRLSCAASGSTFYPYAMGWYRQAPGKERELVAAITYRGGSTYYADSVKGRFTISRDNAKNTVYLQMNSLKPEDTAVYYCAADIGRHTDNYDPRYDYWGQGTQVTVSS | low polyreactivity |
| QVQLVESGGGLVQAGGSLRLSCAASGSTFGRYAMGWYRQAPGKERELVAAITSDTGNTNYADSVKGRFTISRDNAKNTVYLQMNSLKPEDTAVYYCAAATFWVLWGHVIGNYDSWGQGTQVTVSS | low polyreactivity |
| QVQLVESGGGLVQAGGSLRLSCAASGSIFYTYVMGWYRPAPGKERELVAAISASGVRTYYADSVKGRFTISRDNAKYTFYLQMNSLKPEYTAVYFCAADRQRADYYWGQGTQVTVSS | high polyreactivity |
| QVQLVESGGGLVQAGGSLRLSCAASGNTFGIYAMGWYRQAPGKERELVAAISSGTSTNYADSVKGRFTISRDNAKNTVYLQMNSMKPEDTAVYYCNADDQYQDVREDYWGQGTQVTVSS | low polyreactivity |
| QVQLVESGGGLVQAGGSLRLSSAASGRIFIGNAMGWYRQAPGKERELVAAISKGGGSTYYADSVKGRFTISRDNAKNTVYLQMNSLKPEDTAVYYCNKLRYPLLPPKYYYWGQGTQVTVSS | high polyreactivity |
| QVQLVESGGGLVQAGGTLRLSCAASGFLFVFYDMGWYRQAPAKERELVAGITRNDGSTYYADSVKGRFKISRDNAKNTVYLLMNSLKPEDTAVYYCAADRVRRNDKLAYDYWGQGTQVTVSS | low polyreactivity |
| QVQLVESGGGLVQAGGSLRLSCAACGSTFSVHAMGWYRQAPGKERELVAAISWGGTSTYYADSVKGRFTISRDNAKNTVYLQMNSLKPEDTAVYYCAAVSRGKVNTVYYWGQGTQVTVSS | high polyreactivity |
| QVQLVESGAGLVQAGGSLRLSCAASGYTFSKNTMGWYRQAPGKERELVAAISRSGGSTYYADSVKGRFTISRDNAKNTFYLQMNSLKPEDTAVYYSAKRVSTYGFSGYDYWGQGTQVTVSS | high polyreactivity |
